How the values were obtained:
Assay in all cases: ProtoArray, G9a array SNR minus GST array SNR
[1] = molecular target: DIRAS1, G9a-methylated (human) (UniProt O95057)
[2] = molecular target: MGC10433 (RNA-binding protein 42), G9a-methylated (human) (UniProt Q9BTD8)
[3] = molecular target: SAR1B, G9a-methylated (human) (UniProt Q9Y6B6)
[4] = molecular target: FTH1 (hit 104), G9a-methylated (human) (UniProt P02794)
[5] = molecular target: RPL14, G9a-methylated (human) (UniProt P50914)
[6] = molecular target: AP1S1, G9a-methylated (human) (UniProt P61966)
[7] = molecular target: RHBDD1, G9a-methylated (human) (UniProt Q8TEB9)
[8] = molecular target: SERPINB2, G9a-methylated (human) (UniProt P05120)
[9] = molecular target: CDK5RAP3, G9a-methylated (human) (UniProt Q96JB5)
[10] = molecular target: TTC27, G9a-methylated (human) (UniProt Q6P3X3)
[11] = molecular target: CMTM3, G9a-methylated (human) (UniProt Q96MX0)
[12] = molecular target: CLDN15, G9a-methylated (human) (UniProt P56746)
[13] = molecular target: TMEM97, G9a-methylated (human) (UniProt Q5BJF2)
[14] = molecular target: CD79A, G9a-methylated (human) (UniProt P11912)
[15] = molecular target: SSR4, G9a-methylated (human) (UniProt P51571)
[16] = molecular target: GYPC, G9a-methylated (human) (UniProt P04921)
[17] = molecular target: RAB33B, G9a-methylated (human) (UniProt Q9H082)
[18] = molecular target: ARL6IP1, G9a-methylated (human) (UniProt Q15041)
[19] = molecular target: LYRM7, G9a-methylated (human) (UniProt Q5U5X0)
[20] = molecular target: GPR108, G9a-methylated (human) (UniProt Q9NPR9)
[21] = molecular target: YPEL5, G9a-methylated (human) (UniProt P62699)
[22] = molecular target: KIFC1, G9a-methylated (human) (UniProt Q9BW19)
[23] = molecular target: GHRL, G9a-methylated (human) (UniProt Q9UBU3)
[24] = molecular target: CRYZL1, G9a-methylated (human) (UniProt O95825)
[25] = molecular target: CCL24, G9a-methylated (human) (UniProt O00175)
[26] = molecular target: GPX1, G9a-methylated (human) (UniProt P07203)
[27] = molecular target: WDR45, G9a-methylated (human) (UniProt Q9Y484)
[28] = molecular target: SNFT, G9a-methylated (human) (UniProt Q9NR55)
[29] = molecular target: MRPL21, G9a-methylated (human) (UniProt Q7Z2W9)
[30] = molecular target: FTH1 (hit 109), G9a-methylated (human) (UniProt P02794)
[31] = molecular target: ZRANB1, G9a-methylated (human) (UniProt Q9UGI0)
[32] = molecular target: C1QTNF6, G9a-methylated (human) (UniProt Q9BXI9)
[33] = molecular target: TMED5, G9a-methylated (human) (UniProt Q9Y3A6)
[34] = molecular target: GFOD1, G9a-methylated (human) (UniProt Q9NXC2)
[35] = molecular target: SMAP1, G9a-methylated (human) (UniProt Q8IYB5)
[36] = molecular target: NME1, G9a-methylated (human) (UniProt P15531)
[37] = molecular target: RDH11, G9a-methylated (human) (UniProt Q8TC12)
[38] = molecular target: SH3YL1 (clone MGC:12275), G9a-methylated (human) (UniProt Q96HL8)
[39] = molecular target: PSMA8, G9a-methylated (human) (UniProt Q8TAA3)
[40] = molecular target: CRB3, G9a-methylated (human) (UniProt Q9BUF7)

Sequence of 3× Flag-3×MBT (designed binder) (Q9Y468 258-598): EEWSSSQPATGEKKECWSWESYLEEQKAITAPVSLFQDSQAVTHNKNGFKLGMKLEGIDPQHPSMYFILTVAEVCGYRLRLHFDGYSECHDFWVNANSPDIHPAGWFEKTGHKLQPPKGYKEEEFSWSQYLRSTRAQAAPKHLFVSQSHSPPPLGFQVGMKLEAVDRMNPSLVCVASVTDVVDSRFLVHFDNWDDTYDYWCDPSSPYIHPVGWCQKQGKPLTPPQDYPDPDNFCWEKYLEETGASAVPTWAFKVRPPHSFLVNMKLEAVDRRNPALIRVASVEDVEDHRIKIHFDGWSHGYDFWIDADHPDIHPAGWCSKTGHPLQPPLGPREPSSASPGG
Sequence of CDK5RAP3, G9a-methylated (human) (Q96JB5 whole entry): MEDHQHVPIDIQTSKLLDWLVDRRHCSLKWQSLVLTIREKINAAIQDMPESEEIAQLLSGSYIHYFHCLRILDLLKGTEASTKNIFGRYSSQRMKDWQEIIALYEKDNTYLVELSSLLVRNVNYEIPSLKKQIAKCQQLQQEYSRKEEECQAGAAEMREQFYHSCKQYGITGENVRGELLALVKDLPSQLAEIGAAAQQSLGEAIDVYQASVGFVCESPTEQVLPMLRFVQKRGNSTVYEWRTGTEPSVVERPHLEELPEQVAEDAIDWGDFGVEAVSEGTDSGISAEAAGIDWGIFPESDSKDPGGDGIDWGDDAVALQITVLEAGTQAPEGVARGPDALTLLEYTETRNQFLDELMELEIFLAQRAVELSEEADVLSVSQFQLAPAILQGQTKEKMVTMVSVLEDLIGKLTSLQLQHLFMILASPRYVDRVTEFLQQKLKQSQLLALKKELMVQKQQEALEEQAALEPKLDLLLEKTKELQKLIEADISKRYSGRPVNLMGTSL
Sequence of CCL24, G9a-methylated (human) (O00175 27-119 limits assumed): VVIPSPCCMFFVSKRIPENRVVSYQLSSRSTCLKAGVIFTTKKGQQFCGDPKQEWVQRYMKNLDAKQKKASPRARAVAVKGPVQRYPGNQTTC
Sequence of CMTM3, G9a-methylated (human) (Q96MX0 whole entry): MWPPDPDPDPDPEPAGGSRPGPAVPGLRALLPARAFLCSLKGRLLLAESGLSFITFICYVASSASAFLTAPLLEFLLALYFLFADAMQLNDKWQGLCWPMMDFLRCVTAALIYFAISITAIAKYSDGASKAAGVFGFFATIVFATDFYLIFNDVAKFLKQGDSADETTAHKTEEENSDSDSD
Sequence of CRYZL1, G9a-methylated (human) (O95825 whole entry): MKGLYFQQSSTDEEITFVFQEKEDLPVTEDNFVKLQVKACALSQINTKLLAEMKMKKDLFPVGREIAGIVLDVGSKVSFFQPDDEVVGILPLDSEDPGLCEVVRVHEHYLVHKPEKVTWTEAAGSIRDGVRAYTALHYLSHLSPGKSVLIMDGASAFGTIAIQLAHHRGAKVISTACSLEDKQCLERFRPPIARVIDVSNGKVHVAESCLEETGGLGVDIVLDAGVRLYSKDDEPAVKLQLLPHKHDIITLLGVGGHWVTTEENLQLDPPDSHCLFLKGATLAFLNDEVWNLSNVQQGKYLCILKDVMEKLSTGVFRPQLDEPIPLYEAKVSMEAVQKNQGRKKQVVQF
Sequence of PSMA8, G9a-methylated (human) (Q8TAA3 whole entry): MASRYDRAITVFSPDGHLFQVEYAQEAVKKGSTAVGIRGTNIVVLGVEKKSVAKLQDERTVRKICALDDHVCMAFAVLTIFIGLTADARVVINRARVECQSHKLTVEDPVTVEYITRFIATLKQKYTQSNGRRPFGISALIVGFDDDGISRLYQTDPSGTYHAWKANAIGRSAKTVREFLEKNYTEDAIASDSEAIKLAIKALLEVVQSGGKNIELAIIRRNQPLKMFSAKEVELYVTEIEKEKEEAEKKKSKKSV
Sequence of RAB33B, G9a-methylated (human) (Q9H082 whole entry): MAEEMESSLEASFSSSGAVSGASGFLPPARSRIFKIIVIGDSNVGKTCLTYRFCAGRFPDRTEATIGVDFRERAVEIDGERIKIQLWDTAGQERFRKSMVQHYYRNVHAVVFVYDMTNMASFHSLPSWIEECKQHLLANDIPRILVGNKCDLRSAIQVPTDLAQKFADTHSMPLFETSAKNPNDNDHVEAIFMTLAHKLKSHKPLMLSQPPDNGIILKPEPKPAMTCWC
Sequence of WDR45, G9a-methylated (human) (Q9Y484 other isoform, or with tags, fused parts or gaps limits assumed): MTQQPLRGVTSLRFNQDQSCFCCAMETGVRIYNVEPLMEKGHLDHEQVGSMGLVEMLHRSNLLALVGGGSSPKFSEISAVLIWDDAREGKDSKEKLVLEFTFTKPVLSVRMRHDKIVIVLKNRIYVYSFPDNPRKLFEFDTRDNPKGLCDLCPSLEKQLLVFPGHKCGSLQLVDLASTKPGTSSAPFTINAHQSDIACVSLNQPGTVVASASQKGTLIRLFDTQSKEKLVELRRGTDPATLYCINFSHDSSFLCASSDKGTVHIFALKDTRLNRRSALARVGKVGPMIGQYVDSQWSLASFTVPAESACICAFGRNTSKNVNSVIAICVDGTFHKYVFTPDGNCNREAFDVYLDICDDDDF
Sequence of DIRAS1, G9a-methylated (human) (O95057 whole entry): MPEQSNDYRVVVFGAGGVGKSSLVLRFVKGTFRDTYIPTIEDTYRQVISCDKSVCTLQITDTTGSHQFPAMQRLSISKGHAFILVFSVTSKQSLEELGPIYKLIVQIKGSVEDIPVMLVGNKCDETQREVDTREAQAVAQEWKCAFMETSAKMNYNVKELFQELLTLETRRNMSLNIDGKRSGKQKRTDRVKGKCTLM
Sequence of CLDN15, G9a-methylated (human) (P56746 whole entry): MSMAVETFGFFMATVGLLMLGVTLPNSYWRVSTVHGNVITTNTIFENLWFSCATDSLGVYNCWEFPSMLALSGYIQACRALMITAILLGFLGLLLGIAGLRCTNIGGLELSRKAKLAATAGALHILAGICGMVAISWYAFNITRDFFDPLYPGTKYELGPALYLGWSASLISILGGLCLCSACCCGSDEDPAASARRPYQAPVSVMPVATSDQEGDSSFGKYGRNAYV
Sequence of FTH1 (hit 109), G9a-methylated (human) (P02794 whole entry): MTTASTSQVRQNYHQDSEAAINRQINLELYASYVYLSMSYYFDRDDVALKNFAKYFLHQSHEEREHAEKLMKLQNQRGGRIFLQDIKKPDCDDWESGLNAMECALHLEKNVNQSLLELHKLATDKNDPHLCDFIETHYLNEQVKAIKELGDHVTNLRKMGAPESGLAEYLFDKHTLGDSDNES
Sequence of FTH1 (hit 104), G9a-methylated (human) (P02794 whole entry): as above
Sequence of KIFC1, G9a-methylated (human) (Q9BW19 whole entry): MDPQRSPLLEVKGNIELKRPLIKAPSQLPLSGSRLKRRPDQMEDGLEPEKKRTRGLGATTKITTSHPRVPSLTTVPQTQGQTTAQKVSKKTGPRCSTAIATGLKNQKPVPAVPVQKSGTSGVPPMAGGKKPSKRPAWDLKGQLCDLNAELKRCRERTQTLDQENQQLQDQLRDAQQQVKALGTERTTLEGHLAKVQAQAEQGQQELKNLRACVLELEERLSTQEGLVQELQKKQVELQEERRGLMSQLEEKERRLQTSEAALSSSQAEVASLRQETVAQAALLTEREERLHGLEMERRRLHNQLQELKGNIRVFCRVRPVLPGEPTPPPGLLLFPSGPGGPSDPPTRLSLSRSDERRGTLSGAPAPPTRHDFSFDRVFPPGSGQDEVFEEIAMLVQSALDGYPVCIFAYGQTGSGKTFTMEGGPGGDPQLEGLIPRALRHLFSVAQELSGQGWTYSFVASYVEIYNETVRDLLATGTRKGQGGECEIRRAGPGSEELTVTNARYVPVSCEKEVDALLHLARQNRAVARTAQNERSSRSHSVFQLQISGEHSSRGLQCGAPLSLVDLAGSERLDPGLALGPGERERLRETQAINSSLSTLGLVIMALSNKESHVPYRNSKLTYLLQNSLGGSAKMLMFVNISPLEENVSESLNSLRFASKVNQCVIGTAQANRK
Sequence of SAR1B, G9a-methylated (human) (Q9Y6B6 whole entry): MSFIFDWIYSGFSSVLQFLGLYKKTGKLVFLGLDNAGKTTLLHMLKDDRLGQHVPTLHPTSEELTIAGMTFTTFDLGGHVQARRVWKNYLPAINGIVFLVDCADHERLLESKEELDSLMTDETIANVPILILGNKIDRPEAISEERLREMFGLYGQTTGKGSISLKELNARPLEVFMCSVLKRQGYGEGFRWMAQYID
Sequence of NME1, G9a-methylated (human) (P15531 whole entry): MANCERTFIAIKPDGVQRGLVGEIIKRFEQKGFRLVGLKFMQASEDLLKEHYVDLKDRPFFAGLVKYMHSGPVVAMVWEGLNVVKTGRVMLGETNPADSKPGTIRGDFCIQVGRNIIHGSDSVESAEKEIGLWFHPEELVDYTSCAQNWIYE
Sequence of C1QTNF6, G9a-methylated (human) (Q9BXI9 47-278 limits assumed): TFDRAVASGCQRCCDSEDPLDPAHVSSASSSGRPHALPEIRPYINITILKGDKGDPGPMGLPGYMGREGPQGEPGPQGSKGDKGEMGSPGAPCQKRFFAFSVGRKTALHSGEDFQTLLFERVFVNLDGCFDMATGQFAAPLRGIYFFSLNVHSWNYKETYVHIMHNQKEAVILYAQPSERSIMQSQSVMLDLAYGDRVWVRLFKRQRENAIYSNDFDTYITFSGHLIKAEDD
Sequence of YPEL5, G9a-methylated (human) (P62699 whole entry): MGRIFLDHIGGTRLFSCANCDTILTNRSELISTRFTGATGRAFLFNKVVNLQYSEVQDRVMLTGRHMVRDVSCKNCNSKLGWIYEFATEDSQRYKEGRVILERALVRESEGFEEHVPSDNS
Sequence of ARL6IP1, G9a-methylated (human) (Q15041 whole entry): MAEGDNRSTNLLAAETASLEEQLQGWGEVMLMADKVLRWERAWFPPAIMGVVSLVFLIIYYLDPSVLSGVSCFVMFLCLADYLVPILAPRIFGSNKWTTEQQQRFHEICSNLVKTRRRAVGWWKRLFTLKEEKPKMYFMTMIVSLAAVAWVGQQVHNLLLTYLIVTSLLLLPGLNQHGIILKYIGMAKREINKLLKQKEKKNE

- G9a-GST [1]: 28.2
- G9a-GST [2]: 14.5
- G9a-GST [3]: 19.3
- G9a-GST [4]: 31.2
- G9a-GST [5]: 17.7
- G9a-GST [6]: 15.4
- G9a-GST [7]: 12.4
- G9a-GST [8]: 17.3
- G9a-GST [9]: 14.1
- G9a-GST [10]: 20.2
- G9a-GST [11]: 13.7
- G9a-GST [12]: 25.3
- G9a-GST [13]: 22.8
- G9a-GST [14]: 14.5
- G9a-GST [15]: 13
- G9a-GST [16]: 13.3
- G9a-GST [17]: 20.2
- G9a-GST [18]: 20.8
- G9a-GST [19]: 16.9
- G9a-GST [20]: 20
- G9a-GST [21]: 14.2
- G9a-GST [22]: 62.4
- G9a-GST [23]: 24.1
- G9a-GST [24]: 12.6
- G9a-GST [25]: 34.4
- G9a-GST [26]: 14.5
- G9a-GST [27]: 15.2
- G9a-GST [28]: 17.1
- G9a-GST [29]: 21.9
- G9a-GST [30]: 37.9
- G9a-GST [31]: 13.6
- G9a-GST [32]: 16.8
- G9a-GST [33]: 15.5
- G9a-GST [34]: 16
- G9a-GST [35]: 20.2
- G9a-GST [36]: 14.1
- G9a-GST [37]: 26.5
- G9a-GST [38]: 12.7
- G9a-GST [39]: 13.9
- G9a-GST [40]: 15.5
Substance: 3× Flag-3×MBT (designed binder)
